Measured values taken from IntAct's records for PubMed 22274616.

B1: Protein PML (Homo sapiens), P29590 (parent)
chain: MEPAPARSPRPQQDPARPQEPTMPPPETPSEGRQPSPSPSPTERAPASEEEFQFLRCQQCQAEAKCPKLLPCLHTLCSGCLEASGMQCPICQAPWPLGADTPALDNVFFESLQRRLSVYRQIVDAQAVCTRCKESADFWCFECEQLLCAKCFEAHQWFLKHEARPLAELRNQSVREFLDGTRKTNNIFCSNPNHRTPTLTSIYCRGCSKPLCCSCALLDSSHSELKCDISAEIQQRQEELDAMTQALQEQDSAFGAVHAQMHAAVGQLGRARAETEELIRERVRQVVAHVRAQERELLEAVDARYQRDYEEMASRLGRLDAVLQRIRTGSALVQRMKCYASDQEVLDMHGFLRQALCRLRQEEPQSLQAAVRTDGFDEFKVRLQDLSSCITQGKDAAVSKKASPEAASTPRDPIDVDLPEEAERVKAQVQALGLAEAQPMAVVQSVPGAHPVPVYAFSIKGPSYGEDVSNTTTAQKRKCSQTQCPRKVIKMESEEGKEARLARSSPEQPRPSTSKAVSPPHLDGPPSPRSPVIGSEVFLPNSNHVASGAGEAEERVVVISSSEDSDAENSSSRELDDSSSESSDLQLEGPSTLRVLDENLADPQAEDRPLVFFDLKIDNETQKISQLAAVNRESKFRVVIQPEAFFSIYSKAVSLEVGLQHFLSFLSSMRRPILACYKLWGPGLPNFFRALEDINRLWEFQEAISGFLAALPLIRERVPGASSFKLKNLAQTYLARNMSERSAMAAVLAMRDLCRLLEVSPGPQLAQHVYPFSSLQCFASLQPLVQAAVLPRAEARLLALHNVSFMELLSAHRRDRQGGLKKYSRYLSLQTTTLPPAQPAFNLQALGTYFEGLLEGPALARAEGVSTPLAGRGLAERASQQS

Variants of: B1
Conditions: with per2_mouse Per2, O54943
per2_mouse Per2, O54943, sequence (O54943 whole entry): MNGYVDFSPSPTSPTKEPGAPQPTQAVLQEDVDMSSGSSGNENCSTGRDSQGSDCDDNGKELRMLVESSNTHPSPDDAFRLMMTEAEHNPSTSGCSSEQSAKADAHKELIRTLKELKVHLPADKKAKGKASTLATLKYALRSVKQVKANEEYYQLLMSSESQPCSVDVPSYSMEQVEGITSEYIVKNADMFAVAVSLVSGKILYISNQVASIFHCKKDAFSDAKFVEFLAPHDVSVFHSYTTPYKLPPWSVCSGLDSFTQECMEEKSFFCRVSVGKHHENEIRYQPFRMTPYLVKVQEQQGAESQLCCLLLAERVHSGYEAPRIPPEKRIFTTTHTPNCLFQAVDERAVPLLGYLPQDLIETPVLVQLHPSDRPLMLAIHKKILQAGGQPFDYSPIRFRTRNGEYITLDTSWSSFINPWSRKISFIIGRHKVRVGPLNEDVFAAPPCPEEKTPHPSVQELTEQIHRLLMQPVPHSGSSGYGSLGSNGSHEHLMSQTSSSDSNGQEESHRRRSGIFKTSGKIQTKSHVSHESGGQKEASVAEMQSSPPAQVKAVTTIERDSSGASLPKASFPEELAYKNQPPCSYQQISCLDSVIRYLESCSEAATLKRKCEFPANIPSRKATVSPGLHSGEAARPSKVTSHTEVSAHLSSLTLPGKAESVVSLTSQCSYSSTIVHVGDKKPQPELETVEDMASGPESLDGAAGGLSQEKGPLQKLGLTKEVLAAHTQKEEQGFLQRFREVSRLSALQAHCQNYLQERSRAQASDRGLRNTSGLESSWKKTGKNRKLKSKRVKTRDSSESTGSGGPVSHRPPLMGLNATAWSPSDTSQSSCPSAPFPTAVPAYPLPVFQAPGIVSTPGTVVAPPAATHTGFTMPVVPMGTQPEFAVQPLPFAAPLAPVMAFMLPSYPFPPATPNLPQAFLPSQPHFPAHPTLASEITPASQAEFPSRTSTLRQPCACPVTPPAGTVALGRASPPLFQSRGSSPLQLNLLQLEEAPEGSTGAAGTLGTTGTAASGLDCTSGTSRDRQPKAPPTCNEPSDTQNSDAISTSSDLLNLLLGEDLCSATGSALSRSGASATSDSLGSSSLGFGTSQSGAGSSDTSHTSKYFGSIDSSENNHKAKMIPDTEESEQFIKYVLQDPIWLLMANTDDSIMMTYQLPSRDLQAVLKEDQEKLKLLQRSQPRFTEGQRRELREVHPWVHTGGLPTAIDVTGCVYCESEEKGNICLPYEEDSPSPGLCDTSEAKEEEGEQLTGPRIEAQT
K487R was tested, and the “effect of a mutation on the interaction” value was “decreasing interaction strength”.
